Reference: publication PMC5084153, “Structural studies on MRG701 chromodomain reveal a novel dimerization interface of MRG proteins in green plants” (Protein & Cell, 2016)
Where a chain is given by its changes, count along the chain named. Several values for one entry are separate records, joined by “and”; a condition that tells them apart may be missing. Equal entries are not always repeated. Primed or numbered codes have the meaning given here. No end group written: not given here. Me3″ = trimethyl (trimethyl-lysine)

T1: MRG1 chromodomain (MRG1^CD, residues 28-110) (Arabidopsis thaliana, UniProt Q94C32 28-110)
T1 chain: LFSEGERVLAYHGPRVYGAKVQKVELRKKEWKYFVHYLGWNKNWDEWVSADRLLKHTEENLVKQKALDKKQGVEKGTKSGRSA

T2: MRG2 chromodomain (MRG2^CD) (Arabidopsis, UniProt Q4V3E2 51-123)
T2 chain: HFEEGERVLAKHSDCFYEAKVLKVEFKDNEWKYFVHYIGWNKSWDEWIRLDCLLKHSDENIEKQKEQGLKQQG

T3: MRG2 chromodomain mutant E75A (MRG2^CDE75A) (Arabidopsis, UniProt Q4V3E2 51-123, E75A)
T3 sequence: T2 chain with E25A

T4: MRG1 chromodomain mutant W58A (MRG1^CDW58A) (Arabidopsis thaliana, UniProt Q94C32 28-110, W58A)
T4 sequence: T1 chain with W31A

T5: MRG1 chromodomain mutant W58A (MRG1^CDW58A) (Arabidopsis thaliana, UniProt Q94C32 28-110, W58A)
T5 construct: MRG1 of Arabidopsis thaliana, chromodomain, residues 28-110, point mutant W58A; source: E. coli BL21 (DE3), purified (Ni HiTrap, tag removed by ULP enzyme, Superdex G75)
T5 sequence (looked up): T1 chain with W31A

B1: histone H3K4me3 peptide (residues 1-9) (peptide, UniProt P68431 2-10, looked up)
peptide: ARTK(Me3″)QTARK
notes: histone H3, residues 1-9, trimethylated at lysine 4
B2: MRG2 chromodomain (MRG2^CD) (domain or fragment, Arabidopsis)
chain: T2 chain
notes: MRG2 of Arabidopsis, chromodomain; Homodimer by SEC-MALS; also called wild-type MRG2^CD; source: purified
B3: MRG2^CDE75A: point mutant of MRG2 chromodomain disrupting hydrogen bonding and electrostatic interactions (protein)
chain: T2 chain with E25A
B4: MRG1 chromodomain (MRG1^CD, residues 28-110) (domain or fragment, Arabidopsis thaliana, UniProt Q94C32 28-110, looked up)
chain: T1 chain
notes: MRG1 of Arabidopsis thaliana, chromodomain, residues 28-110; Homodimer by SEC-MALS; also called wild-type MRG1^CD; source: E. coli BL21 (DE3), purified (Ni HiTrap, tag removed by ULP enzyme, Superdex G75)
B5: MRG1^CD: MRG1 chromodomain (residues 28–110), Arabidopsis thaliana (protein)
chain: T1 chain
modifications: left off: SMT3 (from the modified vector pET28-SMT3), end not stated, cleaved
notes: MRG1 chromodomain (residues 28–110), Arabidopsis thaliana
B6: MRG1^CDW58A: point mutant of MRG1 chromodomain disrupting π-π stacking (protein)
chain: T1 chain with W31A
modifications: left off: SMT3 (from the modified vector pET28-SMT3), end not stated, cleaved
notes: point mutant of MRG1 chromodomain disrupting π-π stacking

Tests used:
[1] = biological target: MRG701 chromodomain (MRG701^CD, residues 27-96) (Oryza sativa); assay: SEC-MALS; Wyatt 015S5 (150 Å) column, 0.5 mL/min, 10 mmol/L Tris 8.0, 100 mmol/L NaCl; self-association of the chromodomain
[2] = biological target: MRG701 chromodomain (MRG701^CD, residues 27-96) (Oryza sativa); assay: ITC; MicroCal iTC200, 20°C, 20 mmol/L Tris pH 8.0, 100 mmol/L NaCl; protein 0.1-0.2 mmol/L in the cell, peptide 1-2 mmol/L in the syringe; one-site model
[3] = biological target: MRG701 chromodomain mutant W56A (MRG701^CDW56A) (Oryza sativa); assay: as above
MRG1^CDW58A = biological target: T6, MRG1^CDW58A (Arabidopsis thaliana, UniProt Q94C32, W58A); format: binding
T6 construct: Arabidopsis thaliana MRG1 (residues 28–110); His-SMT3 (SUMO) from modified pET28-SMT3 (N, cleaved yes); made in house; host or cells: Escherichia coli BL21 (DE3)
Procedure: The cDNA encoding the chromodomain of Arabidopsis thaliana MRG1 (residues 28–110) and Oryza sativa MRG701 (residues 27–96) were amplified by PCR and cloned into the modified pET28-SMT3 vector. Point mutants were generated by Site-Directed Mutagenesis kit (NEB) according to the manufacturer’s instructions. The plasmid was transformed into Escherichia coli strain BL21 (DE3). The cells were cultured in LB medium with 50 μg/mL kanamycin and induced by final concentration of 0.2 mmol/L isopropyl-β-d-thiogalactopyranoside (IPTG) at 18°C for 18 h. Cells were harvested and re-suspended in 20 mmol/L Tris pH 8.0, 500 mmol/L NaCl, 25 mmol/L imidazole and then broken by cell disruptor (JNBIO). The fusion protein was purified first with Ni HiTrap column (GE healthcare) and then removed the tag by ULP enzyme. The target protein was further purified with Superdex G75 Hiload 26/60 column (GE healthcare) and then concentrated to 20 mg/mL for structural and biochemical studies.
ITC experiments were carried out at 20°C on a MicroCal iTC200. Protein and peptide were kept in an identical buffer of 20 mmol/L Tris pH 8.0, 100 mmol/L NaCl. The sample cell was filled with a 0.1–0.2-mmol/L solution of protein, and the injection syringe with 1–2 mmol/L of the titrating ligand. […] Binding isotherms were analyzed by fitting data into the one-site model using the ITC data analysis module Origin 7.0 software.

MRG2^CDE75A = biological target: T7, MRG2^CDE75A (Arabidopsis thaliana, UniProt Q4V3E2, E75A); format: binding
T7 construct: the Arabidopsis MRG2 chromodomain (MRG2^CD)
Procedure: ITC experiments were carried out at 20°C on a MicroCal iTC200. Protein and peptide were kept in an identical buffer of 20 mmol/L Tris pH 8.0, 100 mmol/L NaCl. The sample cell was filled with a 0.1–0.2-mmol/L solution of protein, and the injection syringe with 1–2 mmol/L of the titrating ligand. Each titration consisted of 20 2-μL injections with 2 min interval. Binding isotherms were analyzed by fitting data into the one-site model using the ITC data analysis module Origin 7.0 software.

[4] = biological target: T1, MRG1 chromodomain (MRG1^CD, residues …); assay: ITC
[5] = biological target: T2, MRG2 chromodomain (MRG2^CD); assay: ITC
[6] = biological target: T3, MRG2 chromodomain mutant E75A …; assay: ITC
[7] = biological target: T4, MRG1 chromodomain mutant W58A …; assay: ITC
[8] = biological target: B4; assay: ITC; MicroCal iTC200, 20°C, 20 mmol/L Tris pH 8.0, 100 mmol/L NaCl; protein 0.1-0.2 mmol/L in the cell, peptide 1-2 mmol/L in the syringe; one-site model; details: both partners purified
[9] = biological target: T5, MRG1 chromodomain mutant W58A …; assay: as above; details: both partners purified
[10] = SEC-MALS analysis of oligomerization status in solution; format: physicochemical; details: for oligomerization in crystal and in solution (in words): SEC-MALS and crystal structure; for Observed molar mass by SEC-MALS: Wyatt 015S5 (150 Å) column, 0.5 mL/min, 10 mmol/L Tris 8.0, 100 mmol/L NaCl, multi-angle light scattering and differential refractive index
Procedure: The absolute molar mass of target protein was determined by size exclusion chromatography coupled with multi-angel light scattering. The experiments were performed by an Agilent system connected with a Wyatt DAWN HELEOS-II multi-angle light scattering instrument and a Wyatt OptilabrEX differential refractometer. A Wyatt 015S5 (150 Å) column was used with a 100 μL sample loop at a flow rate of 0.5 mL/min in the running buffer of 10 mmol/L Tris 8.0, 100 mmol/L NaCl. The molar mass was calculated by light scattering intensity and differential refractive index using Wyatt ASTRA 6 software (Wyatt, [1993]).

[11] = biological target: the molecule itself; assay: SEC-MALS; Wyatt 015S5 (150 Å) column, 0.5 mL/min, 10 mmol/L Tris 8.0, 100 mmol/L NaCl; self-association of the chromodomain

T7 sequence (Q4V3E2 52-101 E75A): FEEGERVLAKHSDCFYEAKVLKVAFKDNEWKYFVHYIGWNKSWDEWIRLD
T6 sequence (Q94C32 28-110 W58A): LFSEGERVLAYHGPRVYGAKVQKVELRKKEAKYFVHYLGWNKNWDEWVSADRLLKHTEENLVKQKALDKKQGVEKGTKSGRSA

MRG701 chromodomain (MRG701^CD, residues 27-96) (domain or fragment)
stoichiometry N [1]: 2

histone H3K36me3 peptide (residues 31-41) (from UniProt P68431 32-42)
Kd [2]: 510 µM | Kd [3]: 260 µM

C[C@H](N)C(=O)N[C@@H](CCCNC(=N)N)C(=O)N[C@H](C(=O)N[C@@H](CCCC[N+](C)(C)C)C(=O)N[C@@H](CCC(N)=O)C(=O)N[C@H](C(=O)N[C@@H](C)C(=O)N[C@@H](CCCNC(=N)N)C(=O)N[C@@H](CCCCN)C(=O)O)[C@@H](C)O)[C@@H](C)O [H3K4me3]
difference of Kd between wild-type and mutant proteins (in words) (MRG1^CDW58A): only mild differences | difference of Kd between wild-type and mutant proteins (in words) (MRG2^CDE75A): only mild differences

B1
Kd [4]: 650 µM | Kd [5]: 520 µM | Kd [6]: 450 µM | Kd [7]: 910 µM | Kd [2]: 330 µM | Kd [3]: 250 µM | binding result [8]: binds | binding result [9]: binds

B2
oligomerization in crystal and in solution (in words) [10]: form dimers both in crystal and in solution | Observed molar mass by SEC-MALS [10]: 20.7 kDa and 20.74 ± 3.05 kDa | stoichiometry N [11]: 2

B3
Observed molar mass by SEC-MALS [10]: 12.5 kDa and 12.47 ± 0.92 kDa

B4
stoichiometry N [11]: 2

B5
oligomerization in crystal and in solution (in words) [10]: form dimers both in crystal and in solution | Observed molar mass by SEC-MALS [10]: 20.7 kDa and 20.67 ± 2.99 kDa

B6
Observed molar mass by SEC-MALS [10]: 13.4 kDa and 13.36 ± 1.40 kDa
